Measured values as given in patent US6541002 (THOMAS JEFFERSON UNIVERSITY, dated 2003).

Target: T1, Vpr-Gal4DB chimeric protein (HIV-1, UniProt P04386 1-147; P12520 1-96)
T1 construct: also called Vpr-Gal4BD
Assay: yeast two-hybrid, growth on histidine-deficient medium

B1: wild type Gal4AD (other)
chain: ANFNQSGNIADSSLSFTFTNSSNGPNLITTQTNSQALSQPIASSNVHDNFMNNEITASKIDDGNNSKPLSPGWTDQTAYNAFGITTGMFNTTTMDDVYNYLFDDEDTPPNPKKE
- binding result: no binding
